Experiment [1] concerns the target mouse TNFR2-Fc fusion protein (mouse) (UniProt P25119). Description: ELISA; TNFR1-Fc or TNFR2-Fc coated at 1 µg/ml in PBS, 4 °C overnight; TNF muteins in 2% skim milk powder in PBS, 1 h RT; detected with anti-TNF clone F6C5 and HRP anti-mouse IgG. On the technique in general: An ELISA detects its analyte on a solid surface through an enzyme-linked reagent.
Experiment [2] shares this target. The experiment is described as follows: quartz crystal microbalance; mouse TNFR2-Fc chemically immobilised on a carboxyl sensor chip at high density (270 Hz, saturated); muteins 2-32 nM; PBST (PBS, 0.1% Tween 20) pH 7.4, 37 °C; Attana Cell 200.
Experiment [3] deals with EHD2-sc-mTNFR2 (not stated | mouse) (UniProt P06804). Description: SEC; approx. 20 µg protein on BioSep-SEC-S2000 in PBS, 0.5 ml/min; size by standard proteins. For orientation: SEC sorts molecules by how far they enter the pores of the column.
For experiment [4], the target named is mouse TNFR2-Fc fusion protein (mouse) (UniProt P25119). The experiment is described as follows: quartz crystal microbalance; mouse TNFR2-Fc chemically immobilised on a carboxyl sensor chip at low density (130 Hz, non-saturated); muteins 8-256 nM; PBST (PBS, 0.1% Tween 20) pH 7.4, 37 °C; Attana Cell 200; biphasic curves for p53- and GCN4-sc-mTNFR2.
For experiment [5], the target named is p53-sc-mTNFR2 (not stated | mouse) (UniProt P04637). The experiment is described as follows: SEC; approx. 20 µg protein on BioSep-SEC-S2000 in PBS, 0.5 ml/min; size by standard proteins.

pEC50, pKd: −log10 of the molar value.

For orientation: pEC50 means the negative decadic logarithm of the EC50, by convention in mol/L. Read a high pEC50 as a low EC50. The term pKd denotes the negative decadic logarithm of the Kd, by convention in mol/L. Read a high pKd as a low Kd. One may read the koff as a measure of how fast the partners let go of each other. A high value points to a short-lived complex. The term kon denotes a measure of how fast the partners come together. Read a low kon as slower complex formation. Usually stoichiometry N stands for a count of units in the complex or per binding partner.

In experiment [1], “EHD2-sc-mTNFR2 (from UniProt P06804 91-235; P06804 91-235; P06804 91-235) (ligand)” gave a pEC50 of 9.96. In experiment [2], this substance gave a pKd of 10.21, a koff of 3.74e-05 s⁻¹ and a kon of 607000 M⁻¹ s⁻¹. The same substance registered a stoichiometry N in experiment [3] of 2. In experiment [4], this substance gave a pKd of 6.93, a koff of 0.063 s⁻¹ and an on-rate (kon) of 533000 M⁻¹ s⁻¹.

With “p53-sc-mTNFR2 (from UniProt P04637 320-359; P06804 91-235; P06804 91-235; P06804 91-235) (ligand)”, the pEC50 in experiment [1] is 10.13. For the same substance, in experiment [2], the pKd is 10.36. This substance also showed a stoichiometry N in experiment [5] of 4. In experiment [4], this substance returned a Kd1 of 50.9 nM and a Kd2 of 3.97 nM.

As for “sc-mTNFR2 (mouse TNFR2-specific (D221N/A223R) single-chain mouse TNF) (from UniProt P06804 91-235; P06804 91-235; P06804 91-235) (ligand)”, the pEC50 in experiment [1] was 8.81. In experiment [2], this substance gave a pKd of 9.35, a koff of 0.000399 s⁻¹ and an association rate constant (kon) of 808000 M⁻¹ s⁻¹.

For the origin of these results see publication PMC5529482.
